Changes are numbered by the printed parent chain. In names and notes the source's numbering stands.

B1: anti-human OX40 IgG2 antibody Mut_11 (S267E/A330S) (antibody, name in EU numbering)
heavy: QVQLQESGPGLVKPSGTLSLTCAVSGGSISSSIWWSWVRQPPGKGLEWIGEIHHSGNTNCNPSLKSRVTISIDKSKNQFSLKLTSVTAADTAVYYCARAGTGTTLDYWGQGTLVTVSSASTKGPSVFPLAPCSRSTSESTAALGCLVKDYFPEPVTVSWNSGALTSGVHTFPAVLQSSGLYSLSSVVTVPSSNFGTQTYTCNVDHKPSNTKVDKTVERKCCVECPPCPAPPVAGPSVFLFPPKPKDTLMISRTPEVTCVVVDVEHEDPEVQFNWYVDGVEVHNAKTKPREEQFNSTFRVVSVLTVVHQDWLNGKEYKCKVSNKGLPSPIEKTISKTKGQPREPQVYTLPPSREEMTKNQVSLTCLVKGFYPSDIAVEWESNGQPENNYKTTPPMLDSDGSFFLYSKLTVDKSRWQQGNVFSCSVMHEALHNHYTQKSLSLSPGK
light: EIVLTQSPGTLSLSPGERATLSCRASQSVSGDYLAWYQQKLGQAPRLLIYGASIRATGIPDRFSGSGSGTDFTLTISKLEPEDFAVYYCQQYGSSPLTFGGGTKVEIKRTVAAPSVFIFPPSDEQLKSGTASVVCLLNNFYPREAKVQWKVDNALQSGNSQESVTEQDSKDSTYSLSSTLTLSKADYEKHKVYACEVTHQGLSSPVTKSFNRGEC
notes: Substitutions in Eu numbering; entries include an unstated signal peptide
B2: anti-human OX40 IgG2 antibody Mut_15 (V234Q/A235G/P238L/S239V/G327A/L328E/A330S/I332T) (antibody)
heavy: B1 heavy with V232Q, A233G, P235L, S236V, E264S, G324A, L325E, I329T
light: B1 light
notes: as for B1
B3: anti-human OX40 IgG2 antibody Mut_16 (S267E/S298G) (antibody, name in EU numbering)
heavy: B1 heavy with S295G, S327A
light: B1 light
notes: as for B1
B4: anti-human OX40 IgG2 antibody Mut_14 (V234M/S267E/S298G/I332L) (antibody)
heavy: B1 heavy with V232M, S295G, S327A, I329L
light: B1 light
notes: as for B1
B5: anti-human OX40 IgG2 antibody Mut_13 (V266L/S298L/L328W) (antibody, name in EU numbering)
heavy: B1 heavy with V263L, E264S, S295L, L325W, S327A
light: B1 light
notes: as for B1
B6: anti-human OX40 IgG2 antibody Mut_12 (P233F/V266L/S298L/L328W) (antibody)
heavy: B1 heavy with P231F, V263L, E264S, S295L, L325W, S327A
light: B1 light
notes: as for B1
B7: anti-human OX40 IgG2 antibody Mut_17 (V266L/S267E/H268S/E269V) (antibody, name in EU numbering)
heavy: B1 heavy with V263L, H265S, E266V, S327A
light: B1 light
notes: as for B1

T1 sequence (P12314 16-292): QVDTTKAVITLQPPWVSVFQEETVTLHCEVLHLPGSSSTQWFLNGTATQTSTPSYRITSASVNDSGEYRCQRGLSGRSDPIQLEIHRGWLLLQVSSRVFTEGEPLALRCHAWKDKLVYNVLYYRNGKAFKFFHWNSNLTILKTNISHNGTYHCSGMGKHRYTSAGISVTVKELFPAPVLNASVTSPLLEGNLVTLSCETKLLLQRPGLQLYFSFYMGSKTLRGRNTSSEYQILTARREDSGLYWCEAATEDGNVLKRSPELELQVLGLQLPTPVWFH

One assay addresses T1, FcγRI (human, UniProt P12314 16-292, biotin-labeled).
T1 construct: extracellular domain; Bought protein; also called CD64
In words: ELISA, coated antibody, biotin-FcγR.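 On Absorbance value: antibody coated at 2 µg/mL at 100 µL per well.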
As for B1, the Absorbance value is 0.13 A650 and the “Relative binding affinity RI/G1” value was found to be 0.05 ratio.
Taken in the same sequence, the figures for B2 were 0.08 A650 and 0.03 ratio.
Taken in the same sequence, the figures for B3 were 0.1 A650 and 0.04 ratio.
The like results for B4 were, in that order, 0.12 A650 and 0.04 ratio.
On to B5, for which the Absorbance value came to 0.18 A650 and the “Relative binding affinity RI/G1” value worked out at 0.07 ratio.
The like results for B6 were, in that order, 0.21 A650 and 0.08 ratio.
For B7, the Absorbance value worked out at 0.14 A650 and the “Relative binding affinity RI/G1” value is 0.05 ratio.

The next assay deals with T2, FcγRIIA^131H (human, UniProt P12318 34-217, biotin-labeled).
T2 construct: extracellular domain; Bought protein; also called RIIAH
T2 sequence (looked up): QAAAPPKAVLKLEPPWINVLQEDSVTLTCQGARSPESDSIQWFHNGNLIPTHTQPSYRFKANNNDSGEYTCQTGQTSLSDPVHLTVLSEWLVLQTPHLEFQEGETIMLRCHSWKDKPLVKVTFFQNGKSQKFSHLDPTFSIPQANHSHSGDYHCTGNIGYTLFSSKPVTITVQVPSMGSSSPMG
In words: ELISA, coated antibody, biotin-FcγR.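 On Absorbance value: antibody coated at 2 µg/mL at 100 µL per well.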 A general note: An ELISA detects its analyte on a solid surface through an enzyme-linked reagent.
With B1, the Absorbance value was 0.55 A650 and the “Relative binding affinity RIIAH/G1” value came out at 0.96 ratio.
The like results for B2 were, in that order, 0.04 A650 and 0.07 ratio.
The like results for B3 were, in that order, 0.39 A650 and 0.68 ratio.
Regarding B4, the Absorbance value was determined as 0.12 A650 and the “Relative binding affinity RIIAH/G1” value was 0.21 ratio.
Taken in the same sequence, the figures for B5 were 0.33 A650 and 0.58 ratio.
The like results for B6 were, in that order, 0.39 A650 and 0.68 ratio.
B7: the Absorbance value was 0.54 A650 and the “Relative binding affinity RIIAH/G1” value turned out to be 0.95 ratio.

In another assay the target is T3, FcγRIIA^131R (human, UniProt P12318 34-217, biotin-labeled).
T3 construct: extracellular domain; Bought protein; also called RIIAR
T3 sequence (looked up): T2 sequence (looked up) with H134R
In words: ELISA, coated antibody, biotin-FcγR.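 On Absorbance value: antibody coated at 2 µg/mL at 100 µL per well.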
Turning to B1, the Absorbance value turned out to be 0.36 A650 and the “Relative binding affinity RIIAR/G1” value stood at 1.36 ratio.
The like results for B2 were, in that order, 0.04 A650 and 0.17 ratio.
Regarding B3, the Absorbance value came out at 0.5 A650 and the “Relative binding affinity RIIAR/G1” value was 1.92 ratio.
Taken in the same sequence, the figures for B4 were 0.32 A650 and 1.22 ratio.
As for B5, the Absorbance value turned out to be 0.26 A650 and the “Relative binding affinity RIIAR/G1” value came out at 1.01 ratio.
The like results for B6 were, in that order, 0.33 A650 and 1.26 ratio.
Taken in the same sequence, the figures for B7 were 0.5 A650 and 1.9 ratio.

The target of the next assay is T4, FcγRIIB (human, UniProt P31994 43-217, biotin-labeled).
T4 construct: extracellular domain; Bought protein; also called CD32b
T4 sequence (looked up): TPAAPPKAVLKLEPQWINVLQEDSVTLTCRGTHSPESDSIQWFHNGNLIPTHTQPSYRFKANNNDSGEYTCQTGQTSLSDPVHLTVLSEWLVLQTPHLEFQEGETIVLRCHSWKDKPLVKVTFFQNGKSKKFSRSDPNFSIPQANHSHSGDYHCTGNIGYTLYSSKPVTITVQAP
In words: ELISA, coated antibody, biotin-FcγR.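 On Absorbance value: antibody coated at 2 µg/mL at 100 µL per well.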
Consider B1, for which the Absorbance value was determined as 1.01 A650, the “Increased factor of RIIB binding compared with wild-type IgG2” value (“Increased factor of RIIB binding” below) is 13.4 fold and the “Relative binding affinity RIIB/G1” value is 1.33 ratio.
Taken in the same sequence, the figures for B2 were 0.47 A650, 6.21 fold and 0.62 ratio.
Taken in the same sequence, the figures for B3 were 1.09 A650, 14.5 fold and 1.44 ratio.
For the molecule B4, the Absorbance value was 0.7 A650, the “Increased factor of RIIB binding” value was 9.36 fold and the “Relative binding affinity RIIB/G1” value turned out to be 0.93 ratio.
B5: the Absorbance value was found to be 0.73 A650, the “Increased factor of RIIB binding” value worked out at 9.75 fold and the “Relative binding affinity RIIB/G1” value stood at 0.97 ratio.
Regarding B6, the Absorbance value turned out to be 0.94 A650, the “Increased factor of RIIB binding” value came to 12.6 fold and the “Relative binding affinity RIIB/G1” value was found to be 1.25 ratio.
The like results for B7 were, in that order, 1.19 A650, 15.9 fold and 1.58 ratio.

In a further assay the target is T5, FcγRIIIA^158F (human, UniProt P08637 17-208, biotin-labeled).
T5 construct: extracellular domain; Bought protein; also called RIIIAF
T5 sequence (P08637 17-208): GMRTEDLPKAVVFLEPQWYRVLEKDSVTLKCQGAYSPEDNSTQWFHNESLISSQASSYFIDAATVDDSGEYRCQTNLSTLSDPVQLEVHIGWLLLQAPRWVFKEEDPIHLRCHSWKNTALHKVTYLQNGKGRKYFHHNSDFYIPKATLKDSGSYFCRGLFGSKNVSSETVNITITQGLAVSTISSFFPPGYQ
As to the kind of experiment: ELISA, coated antibody, biotin-FcγR.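 On Absorbance value: antibody coated at 2 µg/mL at 100 µL per well.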
Consider B1, for which the Absorbance value turned out to be 0.08 A650 and the “Relative binding affinity RIIIAF/G1” value worked out at 0.41 ratio.
The like results for B2 were, in that order, 0.06 A650 and 0.31 ratio.
Consider B3, for which the Absorbance value is 0.06 A650 and the “Relative binding affinity RIIIAF/G1” value came out at 0.32 ratio.
For B4, the Absorbance value was 0.06 A650 and the “Relative binding affinity RIIIAF/G1” value was 0.31 ratio.
Taken in the same sequence, the figures for B5 were 0.07 A650 and 0.37 ratio.
Taken in the same sequence, the figures for B6 were 0.06 A650 and 0.32 ratio.
Taken in the same sequence, the figures for B7 were 0.09 A650 and 0.49 ratio.

The target in the next assay is T6, FcγRIIIA^158V (human, UniProt P08637 17-208, biotin-labeled).
T6 construct: extracellular domain; Bought protein; also called RIIIAV; CD16a 158V
T6 sequence (P08637 17-208 F176V): as the sequence (P08637 17-208) above, with F160V counted along it
As to the kind of experiment: ELISA, coated antibody, biotin-FcγR.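 On Absorbance value: antibody coated at 2 µg/mL at 100 µL per well.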
Take B1: the Absorbance value is 0.08 A650 and the “Relative binding affinity RIIIAV/G1” value was found to be 0.08 ratio.
In the case of B2, the Absorbance value is 0.05 A650 and the “Relative binding affinity RIIIAV/G1” value was found to be 0.06 ratio.
The like results for B3 were, in that order, 0.06 A650 and 0.06 ratio.
The like results for B4 were, in that order, 0.05 A650 and 0.06 ratio.
For the molecule B5, the Absorbance value was 0.08 A650 and the “Relative binding affinity RIIIAV/G1” value worked out at 0.09 ratio.
Turning to B6, the Absorbance value was 0.06 A650 and the “Relative binding affinity RIIIAV/G1” value was 0.06 ratio.
Taken in the same sequence, the figures for B7 were 0.06 A650 and 0.06 ratio.

In the next assay the target is T4, FcγRIIB. As to the kind of experiment: ELISA; relative affinity to FcγRIIB over that to FcγRIIA131R. As to the method: One hundred μl (2 μg/mL) of antibody or mutant thereof were added to the enzyme-linked plate to be coated overnight, then the supernatant was discarded. The plate was blocked with PBS containing 1% BSA for 2 hours, and washed with PBST (PBS containing 0.05% Tween 20). Biotin-labeled FcγR extracellular domain protein (Beijing Sino Biological Co., Ltd) of appropriate concentration was added and incubated at room temperature for 1 hour, then the supernatant was discarded and the plate was washed with PBST. The Biotin-labeled protein was detected by incubating with Streptavidin-HRP (BD BioSciences) at room temperature for 1 hour. The supernatant was removed, and the color-developing solution was added for color development for 20-40 minutes to determine the absorbance of 650 nm (A650).
Anti-human OX40 antibodies containing these new Fc mutation combinations are expressed and the binding property of the mutant antibody to FcγR are analyzed by Enzyme-linked immunosorbent assay (ELISA).
B1: the RIIB/RIIAR stood at 0.98 ratio.
Take B2: the RIIB/RIIAR stood at 3.67 ratio.
With B3, the RIIB/RIIAR is 0.75 ratio.
The same measure, in the same setting: as for B4, the figure is 0.76 ratio; as for B5, 0.96 ratio.
With B6, the RIIB/RIIAR is 0.99 ratio.
B7: the RIIB/RIIAR was determined as 0.83 ratio.

For the origin of these results see patent US20230220042A1 (SHANGHAI JIAO TONG UNIVERSITY SCHOOL OF MEDICINE, published 2023).
